In general, Kd refers to a measure of binding affinity in units of concentration. By koff is commonly meant a measure of how fast the partners let go of each other. A word on the kon: it is the rate constant with which the complex forms. The EC50 is the midpoint of the concentration-response curve.

The values that follow come from patent US20110217237A1 (AbbVie / Abbott, published 2011).

Read-outs that look alike come from different tables or passages of the source.

For assay [1], the target named is T1, human DLL4, full length, on cells (human, UniProt Q9NR61 27-685). The assay can be described thus: cell-based or functional assay.
T1 sequence (Q9NR61 27-685 limits assumed): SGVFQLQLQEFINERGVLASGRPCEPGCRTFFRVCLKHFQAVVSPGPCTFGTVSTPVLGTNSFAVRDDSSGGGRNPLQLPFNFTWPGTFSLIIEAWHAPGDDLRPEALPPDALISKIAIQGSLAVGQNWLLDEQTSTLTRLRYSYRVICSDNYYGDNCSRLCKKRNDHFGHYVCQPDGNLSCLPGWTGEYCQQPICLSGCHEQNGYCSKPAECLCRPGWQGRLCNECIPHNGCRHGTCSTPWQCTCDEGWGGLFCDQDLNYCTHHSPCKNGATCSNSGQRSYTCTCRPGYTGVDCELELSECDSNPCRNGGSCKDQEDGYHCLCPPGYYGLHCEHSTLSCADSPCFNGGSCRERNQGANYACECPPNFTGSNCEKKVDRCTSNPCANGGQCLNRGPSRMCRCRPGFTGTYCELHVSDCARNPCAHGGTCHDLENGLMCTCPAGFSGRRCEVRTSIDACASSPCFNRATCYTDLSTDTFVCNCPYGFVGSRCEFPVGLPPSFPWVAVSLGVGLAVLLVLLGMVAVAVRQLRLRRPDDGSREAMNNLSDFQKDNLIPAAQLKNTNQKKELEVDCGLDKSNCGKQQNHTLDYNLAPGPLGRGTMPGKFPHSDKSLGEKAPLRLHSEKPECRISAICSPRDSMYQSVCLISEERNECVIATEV
Assay [2] deals with T2, mouse DLL4 on cells (mouse, UniProt Q9JI71 27-686). The assay can be described thus: cell-based or functional assay.
T2 sequence (Q9JI71 27-686): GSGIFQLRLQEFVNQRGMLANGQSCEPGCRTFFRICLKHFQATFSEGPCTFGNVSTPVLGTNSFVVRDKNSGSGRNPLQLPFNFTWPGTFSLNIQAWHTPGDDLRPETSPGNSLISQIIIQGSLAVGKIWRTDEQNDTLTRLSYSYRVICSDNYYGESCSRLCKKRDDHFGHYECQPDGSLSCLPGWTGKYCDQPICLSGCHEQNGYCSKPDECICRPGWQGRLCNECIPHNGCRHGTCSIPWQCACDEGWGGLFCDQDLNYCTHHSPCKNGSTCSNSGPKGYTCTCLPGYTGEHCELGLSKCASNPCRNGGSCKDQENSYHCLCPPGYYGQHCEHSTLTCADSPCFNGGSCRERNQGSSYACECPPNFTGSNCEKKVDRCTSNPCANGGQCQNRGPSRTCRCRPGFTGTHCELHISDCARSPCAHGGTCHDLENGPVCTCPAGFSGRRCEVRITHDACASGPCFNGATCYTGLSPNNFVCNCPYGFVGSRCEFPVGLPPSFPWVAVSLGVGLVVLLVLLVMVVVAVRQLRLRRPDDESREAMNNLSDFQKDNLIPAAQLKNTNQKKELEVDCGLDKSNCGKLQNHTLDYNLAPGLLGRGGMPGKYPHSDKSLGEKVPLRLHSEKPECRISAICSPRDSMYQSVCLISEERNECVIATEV
Assay [3] addresses T3, mouse DLL4 extracellular domain (mouse, UniProt Q9JI71 27-532).
T3 construct: extracellular domain; also called muDLL4 ECD; murine DLL4
The assay can be described thus: SPR (Biacore). The procedure: (§1) The BIACORE® surface plasmon resonance assay (Biacore, Inc., Piscataway, N.J., US) determines the affinity of antibodies with kinetic measurements of on-rate and off-rate constants. Binding of DLL4 antibodies to a purified recombinant DLL4 extracellular domain (ECD) was determined by surface plasmon resonance-based measurements with a Biacore® instrument (either a Biacore 2000, Biacore 3000, or Biacore T100; GE Healthcare, Piscataway, N.J., US) using running buffer HBS-EPB (10 mM HEPES [pH 7.4], 150 mM NaCl, 3 mM EDTA, 0.1 mg/ml BSA and 0.005% surfactant P20) at 25° C. For example, approximately 9000 RU of goat anti-human Fc specific polyclonal antibody (Thermo Fisher Scientific Inc., Rockford, Ill., US) diluted in 10 mM sodium acetate (pH 4.5) is directly immobilized across a CMS research grade biosensor chip using a standard amine coupling kit according to manufacturer's instructions and procedures at 25 μg/ml. Unreacted moieties on the biosensor surface were blocked with ethanolamine. For kinetic analysis, rate equations derived from the 1:1 Langmuir binding model were fitted simultaneously to multiple antigen injections (using global fit analysis) with the use of Scrubber 2 (BioLogic Software), Biacore Biaevaluation 4.0.1 software or Biacore T100 Evaluation software. Purified antibodies were diluted in running buffer for capture across goat anti-human Fc reaction surfaces. Antibodies to be captured as a ligand (1 μg/ml) were injected over reaction matrices at a flow rate of 10 μl/min. During the assay, all measurements were referenced against the capture surface alone (i.e., with no captured anti-DLL4 antibody). […] The equilibrium dissociation constant KD (M) of the reaction between antibodies and the target antigen was then calculated from the kinetic rate constants by the following formula: KD=Koff/Kₒₙ. Binding was recorded as a function of time and kinetic rate constants were calculated.
For orientation: SPR reads the build-up and loss of mass on a sensor chip optically.

The target in assay [4] is T4, rat DLL4 extracellular domain (rat, UniProt D3ZHH1 28-530).
T4 construct: extracellular domain; also called ratDLL4 ECD
T4 sequence (D3ZHH1 28-530): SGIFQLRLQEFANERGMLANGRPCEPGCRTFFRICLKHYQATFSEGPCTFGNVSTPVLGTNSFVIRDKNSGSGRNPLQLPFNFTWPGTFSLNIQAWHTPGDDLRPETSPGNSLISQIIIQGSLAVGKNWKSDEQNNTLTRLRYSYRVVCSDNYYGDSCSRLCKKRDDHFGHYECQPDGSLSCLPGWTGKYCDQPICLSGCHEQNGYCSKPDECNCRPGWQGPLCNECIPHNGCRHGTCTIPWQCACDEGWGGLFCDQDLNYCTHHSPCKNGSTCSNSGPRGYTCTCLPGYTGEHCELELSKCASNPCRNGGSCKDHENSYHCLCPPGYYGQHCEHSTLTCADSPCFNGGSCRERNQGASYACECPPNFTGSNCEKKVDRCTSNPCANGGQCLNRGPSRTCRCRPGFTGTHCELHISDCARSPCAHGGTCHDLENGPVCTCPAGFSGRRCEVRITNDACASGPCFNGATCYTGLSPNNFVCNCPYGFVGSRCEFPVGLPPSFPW
The assay can be described thus: SPR (Biacore). Here is the method: as §1

Assay [5] concerns the target T1, human DLL4, full length, on cells. The assay can be described thus: FACS, direct binding to DLL4 cells. The procedure: (§2) Stable cell lines overexpressing cell-surface DLL4 were harvested from tissue culture flasks, washed four times and resuspended in phosphate buffered saline (PBS) containing 1% bovine serum albumin and 1 mM CaCl₂ (FACS buffer). 1.5×10⁵ cells were incubated with antibodies at various concentrations in FACS buffer for 60 minutes on ice. […] Following an incubation on ice (4° C., 60 minutes), cells were washed three times and resuspended in FACS buffer. Fluorescence was measured using a Becton Dickinson FACSCalibur-HTS (Becton Dickinson, San Jose, Calif., US). Data were analyzed using Graphpad Prism software and EC₅₀ values were reported as the concentration of antibody to achieve 50% of maximal DLL4 antibodies binding to DLL4 expressing cells.
(§3) The hu1A11.1 affinity matured clones (Table 22) were expressed, purified, and further characterized in vitro. Their activities of binding to cell-bound DLL4 and inhibiting cell-bound DLL4-induced Notch activation were further examined using methods described in Examples 1.3 and 1.6, and are summarized in Table 26 (below).
(In general: A flow cytometer gives signals particle by particle.)

Assay [6] has as its target T2, mouse DLL4 on cells. The assay can be described thus: FACS, direct binding to DLL4 cells. Here is the method:
as §2, §3

In assay [7] the target is T5, cynomolgus monkey DLL4 extracellular domain (cynomolgus monkey).
T5 construct: extracellular domain; also called cynoDLL4 ECD; Cyno DLL4
The assay can be described thus: SPR (Biacore). The procedure:
as §1

Assay [8] concerns the target T6, human DLL4 extracellular domain (human, UniProt Q9NR61 27-529).
T6 construct: purified recombinant ECD; biotin-labelled or 6xHis-tagged depending on the assay; also called huDLL4 ECD; hu DLL4 ECD
The assay can be described thus: SPR (Biacore). The procedure:
as §1

In assay [9] the target is T1, human DLL4, full length, on cells. Briefly: FACS, DLL4 cells. Here is the method: as §2
The good binder variants, as determined by binding ELISA, were assessed by Biacore (Example 1.1) concurrently with cell based assay screens. The KD for human DLL4 was similar for all variants (see, Biacore, KD in Table 18, below).

Assay [10] has as its target T6, human DLL4 extracellular domain. The assay can be described thus: capture ELISA, biotin-huDLL4 ECD.
The target is the same in assay [11]. The assay can be described thus: competition ELISA vs Notch-1 Fc. The procedure:
Plates were then washed 3 times with wash buffer (PBS, 0.05% Tween-20) and blocked with 200 μl/well blocking buffer (D-PBS, 1% BSA, 1 mM CaCl₂, 0.05% Tween-20) for 1 hour at 25° C. While blocking, biotin labeled DLL4 extracellular domain (14 nM) was mixed with antibody (30 pM-66 nM, 3-fold serial dilution in blocking buffer) for 1 hour at 25° C. with shaking. Assay plates were washed after blocking, and incubated with DLL4/antibody mixtures (100 μl/well, 1 hour at 25° C. with shaking). Plates were washed again and 100 μl/well streptavidin conjugated with HRP (Fitzgerald #65R-S104PHRPx, diluted 1:5,000 in blocking buffer) was added for 1 hour at 25° C. with shaking. After a final wash, plates were developed using 100 μl/well substrate (TMB Sigma #T8665), and the reaction was stopped using 100 μl/well 1N HCl, and the absorbance was read at 450 nm. Data were analyzed using Graphpad Prism software and IC₅₀ values were reported as the concentration of antibody to achieve 50% reduction of DLL4 bound to Notch1.
Purified variants were further characterized in human Notch-1 competition ELISAs (Example 1.4), which used a format of plating Notch-1 Fc onto ELISA plates and pre-incubating biotinylated human DLL4 plus titrated antibody. Signal was assessed by free biotinylated DLL4 binding to Notch-1 Fc.
(In general: In an ELISA, binding on a coated surface is turned into a signal by an enzyme label.)

In assay [12] the target is T1, human DLL4, full length, on cells. Briefly: cell-based or functional assay. The source holds these as a separate data set.
The target of assay [13] is T6, human DLL4 extracellular domain. The assay can be described thus: SPR (Biacore). The procedure:
as §1, with “Binding” for “The BIACORE® surface plasmon resonance assay (Biacore, Inc., Piscataway, N.J., US) determines the affinity of antibodies with kinetic measurements of on-rate and off-rate constants. Binding”, “calculated. In this assay, on-rates as fast as 10⁶ M⁻¹s⁻¹ and off-rates as slow as 10⁻⁶ s⁻¹ could be measured.” for “calculated.”
The good binder variants, as determined by binding ELISA, were assessed by Biacore (Example 1.1) concurrently with cell based assay screens.
The source holds these as a separate data set.

T6 sequence (Q9NR61 27-529 limits assumed): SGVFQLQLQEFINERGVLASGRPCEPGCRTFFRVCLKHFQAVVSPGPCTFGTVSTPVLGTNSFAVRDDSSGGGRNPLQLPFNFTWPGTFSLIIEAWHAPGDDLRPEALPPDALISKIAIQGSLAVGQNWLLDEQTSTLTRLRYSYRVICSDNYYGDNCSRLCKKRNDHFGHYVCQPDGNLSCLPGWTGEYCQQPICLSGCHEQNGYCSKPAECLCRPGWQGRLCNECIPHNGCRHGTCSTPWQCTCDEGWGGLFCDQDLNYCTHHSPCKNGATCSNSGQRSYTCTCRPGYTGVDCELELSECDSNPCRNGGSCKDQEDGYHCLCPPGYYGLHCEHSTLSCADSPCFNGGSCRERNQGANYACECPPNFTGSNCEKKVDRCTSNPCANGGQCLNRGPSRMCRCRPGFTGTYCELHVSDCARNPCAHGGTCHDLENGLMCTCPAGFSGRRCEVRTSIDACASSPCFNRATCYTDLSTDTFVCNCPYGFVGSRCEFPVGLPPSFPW
T3 sequence (Q9JI71 27-532): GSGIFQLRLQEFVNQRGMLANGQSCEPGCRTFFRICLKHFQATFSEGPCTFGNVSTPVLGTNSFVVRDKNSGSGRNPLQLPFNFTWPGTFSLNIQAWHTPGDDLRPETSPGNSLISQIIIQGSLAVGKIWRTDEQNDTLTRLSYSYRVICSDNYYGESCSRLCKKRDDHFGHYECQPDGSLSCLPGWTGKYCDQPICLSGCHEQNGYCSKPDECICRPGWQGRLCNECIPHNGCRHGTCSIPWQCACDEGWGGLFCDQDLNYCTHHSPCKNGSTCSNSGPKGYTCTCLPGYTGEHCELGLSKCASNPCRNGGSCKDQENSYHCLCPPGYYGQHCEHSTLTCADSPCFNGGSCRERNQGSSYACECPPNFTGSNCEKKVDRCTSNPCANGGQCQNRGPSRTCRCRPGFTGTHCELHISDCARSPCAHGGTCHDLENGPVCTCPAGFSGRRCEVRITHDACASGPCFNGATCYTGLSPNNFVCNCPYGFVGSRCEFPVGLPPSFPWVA

B1: h1A11.A6 (antibody, V domains shown)
VH: EVQLVESGGGLVQPGGSLRLSCAASGFTFRHFPMAWVRQAPGKGLEWVATISSSDAWPSYRDSVKGRFTISRDNAKNSLYLQMNSLRAEDTAVYYCSRGYYNSPFAYWGQGTLVTVSS
VL: DIQMTQSPSSLSASVGDRVTITCRASEDIYSNLAWYQQKPGKAPKLLIYDTNNLADGVPSRFSGSGSGTDFTLTISSLQPEDFATYYCQQYNNYPPTFGQGTKLEIK
notes: also called h1A11.A6 VH / h1A11VL.1
As for B1, the “Inhibition of Notch Activation via DLL4 cells, Notch reporter assay” value (shortened to “Inhibition”) was 0.746 nM in assay [1] and 1.17 nM in [2]. Further, the equilibrium dissociation constant (Kd) turned out to be 0.16 nM in [3], 6 nM in assay [4], 0.12 nM in [7] and 0.036 nM in [8]. Besides, the dissociation rate constant (koff) in assay [3] amounted to 3.12e-05 s⁻¹; in [4], 0.000772 s⁻¹; in assay [7] it was 2.1e-05 s⁻¹; in assay [8], 6.62e-06 s⁻¹. Besides, the kon stood at 198000 M⁻¹ s⁻¹ in assay [3], 129000 M⁻¹ s⁻¹ in [4], 171000 M⁻¹ s⁻¹ in assay [7] and 182000 M⁻¹ s⁻¹ in assay [8]. Besides, the EC50 in assay [5] came out at 2.23 nM; in assay [6], 0.636 nM.

B2: h1A11.A7 (antibody, V domains shown)
VH: EVQLVESGGGLVQPGGSLRLSCAASGFTFSNFPMAWVRQAPGKGLEWVATISSSDGTTYYRDSVKGRFTISRDNAKNSLYLQMNSLRAEDTAVYYCARGYYNSPFAYWGQGTLVTVSS
VL: DIQMTQSPSSLSASVGDRVTITCRASQDIYINLAWYQQKPGKAPKLLIFDTSDLADGVPSRFSGSGSGTDFTLTISSLQPEDFATYYCQQYDYYPPTFGQGTKLEIK
notes: also called h1A11VH.1 / h1A11.A7 VL
On to B2, for which the “Inhibition” value in assay [1] stood at 2.92 nM; in assay [2] it was 1.79 nM. Moreover, the binding result in assay [4] is on record as “no binding”. Further, the values for the concentration for a half-maximal effect (EC50) in [5] and in assay [6] were 2.17 nM and 0.625 nM, respectively. Further, the Kd in assay [7] worked out at 7.8 nM; in [8] it was 5.7 nM. The off-rate constant (koff) in assay [7] is 0.00124 s⁻¹; in assay [8], 0.000973 s⁻¹. For the same molecule, the kon in assay [7] turned out to be 158000 M⁻¹ s⁻¹; in assay [8] it was 170000 M⁻¹ s⁻¹.

B3: h1A11.A12 (antibody, V domains shown)
VH: EVQLVESGGGLVQPGGSLRLSCAASGFTFSNFPMAWVRQAPGKGLEWVATISSSDGTTYYRDSVKGRFTISRDNAKNSLYLQMNSLRAEDTAVYYCARGYYNSPFAYWGQGTLVTVSS
VL: DIQMTQSPSSLSASVGDRVTITCRASQDIYYNLAWYQQKPGKSPKLLIFDTSSLADGVPSRFSGSGSGTDFTLTISSLQPEDFATYFCQQYDWYPPTFGQGTKLEIK
notes: also called h1A11VH.1 / h1A11.A12 VL
Consider B3, for which the “Inhibition” value in assay [1] is 1.66 nM; in [2], 0.832 nM. For the same molecule, the binding result in [4] was “no binding”. Further, the concentration giving a half-maximal response (EC50) in assay [5] was determined as 1.77 nM; in [6] it was 0.568 nM. Also, the Kd in assay [7] was 10 nM; in assay [8] it was 7.6 nM. For the same molecule, the koff in [7] was 0.00162 s⁻¹; in assay [8], 0.00132 s⁻¹. For the same molecule, the figures for the on-rate (kon) in assay [7] and in assay [8] were 158000 M⁻¹ s⁻¹ and 173000 M⁻¹ s⁻¹, respectively.

B4: h38H12.8 (antibody, V domains shown)
VH: EVQLVESGGGVVQPGRSLRLSCAASGFTFSNYGMYWIRQAPGKGLEWVAFISHGGGITYYRDSVKGRFTISRDNSKSTLYLQMNSLRAEDTAVYHCAALNWELGIDYWGQGTMVTVSS
VL: EIVMTQSPATLSVSPGERATLSCRASEDIYSNLAWYQKKPGQSPRLLIYAANRLQDGVPARFSGSGSGTEYTLTISSLQSEDFAVYFCLQGSKFPLTFGQGTKLEIKR
notes: humanized IgG; also called VH.1a/VL.2a 38H12
As for B4, the EC50 in [9] is 20 nM; in [10], 0.197 nM; in assay [11], 8.31 nM. Further, the “Notch Reporter Assay EC50” value in assay [12] stood at 5.56 nM. In [13], the Kd was 0.397 nM.

B5: h38H12.16 (antibody, V domains shown)
VH: EVQLVESGGGLVQPGGSLRLSCAASGFTFSNYGMYWIRQAPGKGLEWVAFISHGGGITYYRDSVKGRFTISRDNSKSTLYLQMNSLRAEDTAVYHCAALNWELGIDYWGQGTMVTVSS
VL: EIVMTQSPATLSVSPGERATLSCRASEDIYSNLAWYQKKPGQSPRLLIYAANRLQDGVPARFSGSGSGTEYTLTISSLQSEDFAVYFCLQGSKFPLTFGQGTKLEIKR
notes: humanized IgG; also called VH.2a/VL.2a 38H12
On to B5, for which the EC50 in assay [9] is 2.91 nM; in assay [10], 0.17 nM; in assay [11] it was 3.77 nM. Moreover, the “Notch Reporter Assay EC50” value in [12] was 1.19 nM. In assay [13], this molecule had a Kd of 0.392 nM.
